Measurements taken from the supplement of paper PMC9170038.

System: MS2 coat protein
Assay: apparent KD of MS2 coat protein; designed switch direction (-1 OFF switch, 1 ON switch): 1; higher = weaker reporter binding
Method in brief: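 Each step of the titration lasted 0.8–1.5 h at the lowest concentration and 10–20 min at the highest. The protein, SNAP-549-labelled MS2 coat protein, went from 0.7 or 1.5 nM doubling to 3 µM over RNA switches transcribed on Illumina chips by stalled E. coli RNA polymerase. Normalised cluster fluorescence was curve-fitted, and the per-design median over clusters is given as apparent KD.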

[1] = Eterna round: R95, input ligand: FMN 200 uM
[2] = Eterna round: R95, input ligand: microRNA oligo, concentration not stated
[3] = Eterna round: R95, input ligand: none
[4] = input ligand: microRNA oligo, concentration not stated

Sequence | apparent KD of MS2 coat protein [1] [nM] | apparent KD of MS2 coat protein [2] [nM] | apparent KD of MS2 coat protein [3] [nM] | apparent KD of MS2 coat protein (input ligand: FMN 200 uM) [nM] | apparent KD of MS2 coat protein [4] [nM] | apparent KD of MS2 coat protein (input ligand: none) [nM]
GCGCGAAAGAGCGAGGAUAUGCGGCGUAUAACAUGAGGAUCACCCAUGUCCUUCGAAUCUUGUACGCAGAAGGCGCUACAGGCGC [Robot Leg] (puzzle: Same State 2) | 154 | 61 | 62.2 |  |  | 
GUAGGACAUGAGGAUCACCCAUGUAGGAGGGAACGAGGAUAUGUGAUUAGCGAGGAGAGGACAGAAGGCGUGGUAG [JR_SS1_Sub025] (puzzle: Same State 1) | 18.7 | 18.3 | 21.3 |  |  | 
UUAAAACAUGAGGAUCACCCAUGUCAACAAAGUCGAGGAUAUGGGCAAAUAAAAUAAGAACCAGAAGGCGAAUAAU [salish99_SS1_r3_006] (puzzle: Same State 1) | 38.2 | 434 | 409 |  |  | 
AUAAAACAUGAGGAUCACCCAUGUAGACACGAUGGAGGAUAUACUAGAUCGAAAGAUCUAGUAGAAGGCCGACGUA [Mat - Same State 1 - JL mod - D95] (Eterna round: R96, puzzle: Same State 1) |  |  |  | 21.8 | 15.6 | 19.7
AGGCUCAGACGAGGAUAUGAUCAUGGCGCUUCGGCGCAUACAUGAGGAUCACCCAUGUAGGGUGAUCAGAAGGCGUCUGAGCCA [SSNG2/8-A1] (Eterna round: R96, puzzle: Same State NG 2) |  |  |  | 42.1 | 225 | 314
ACAUGAGAGAUAGGAUAUCGUGUACCUACAUGUGACAUGAGGAUCACCCAUGUGGUAAGUAUGAGCGAGAAGGAUCCGAUAUGU [salish99_SSNG2_r04_1001] (Eterna round: R96, puzzle: Same State NG 2) |  |  |  | 18.6 | 38.6 | 66.4
AGAAGACAUGAGGAUCACCCAUGUAUGAAAAGUACAGGAUAUCAUGAGCUAAGGUGCGCAUGAGAAGGGUGAAAAU [Aatle] (puzzle: Same State 1) | 549 | 166 | 70.3 |  |  | 
UCCGCUAUCUAGAAGGAUAUGCGUAUAUAAACAUGAGGAUCACCCAUGUACCGGCGAAAACCGGUGCAGAAGGUUUAGCUAGUGA [Rediin] (puzzle: Same State 2) | 42.3 | 273 | 502 |  |  | 
UUGAAGAAUUAAGGAUAUUGAAUACAUAUGUUUAACAUGAGGAUCACCCAUGUGGGUUGCGGUGUCGAGAAGGUAAAAUACUAG [Mat - same State NG 2 - JL mod - D97] (Eterna round: R96, puzzle: Same State NG 2) |  |  |  | 236 | 278 | 270
GCACUGGCGGUAGGAUAUCUAGGAUAUGGGAAAGACUAAGUCUGUAGGUCACCUAACCCAGAAGGAGAGAAGGACACCGAAAGG [pwkr ssNG2 2FMN + F9.20] (Eterna round: R96, puzzle: Same State NG 2) |  |  |  | 115 | 16.5 | 12.9
GGAAGGAGGUCAGGAUAUGAACGGAAGGUACAUGAGGAUCACCCAUGUUACGGAGGAAGGAAACGUUAGAAGGGACAAGGAAGG [AK SSNG2-V2-3] (Eterna round: R96, puzzle: Same State NG 2) |  |  |  | 14.8 | 12.8 | 18.1
AAACCACAUGAGGAUCACCCAUGUAAAAAUAUGGGAGGAUAUCGGAAUAAAAUAAAGAAACGAGAAGGCCUAAAAA [59%, Flamingo, 5] (Eterna round: R96, puzzle: Same State 1) |  |  |  | 26.6 | 212 | 256
AGUCCAGCCUGAGCUGGACAAAAGCAUGUACAUGAGGAUCACCCAUGUUCAUGUACAAGCUUUUUGCUCGUCUUAAA [salish99_208a_r3_026] (puzzle: Sensor for hsa-mir-208a) | 483 | 14.6 | 533 |  |  | 
UGUCCAGCCUGAGCUGGACAAAAGCAUGUACAUGAGGAUCACCCAUGUUCAUGUACAAGCUUUUUGCUCGUCUUAUA [salish99_208a_r3_044] (puzzle: Sensor for hsa-mir-208a) | 404 | 13.8 | 415 |  |  | 
GGAGCCAAGGCAGGAUAUUCAUAUUAAUAAACAUGAGGAUCACCCAUGUAGGCCAGAAGGCCUUGGGAGAAGGGCCAUGGCUCG [Xeonanis - 13 mod5] (Eterna round: R96, puzzle: Same State NG 2) |  |  |  | 21.3 | 120 | 196
AUAGUUAGCGAAGGAUAUGGGAAAGGAAGUGUACCAGAAGGUCGGCUACUGGGCUUACAUGAGGAUCACCCAUGUCCCGGUAGC [PowerStrip SSNG 1.13] (Eterna round: R96, puzzle: Same State NG 1) |  |  |  | 10.1 | 9.15 | 12.2
GUGACCUCCCUAGGAUAUCGCCAAAUGUGAUGUCGACAUGAGGAUCACCCAUGUAUAGUCACGAACGAGAAGGAGGGUGUGGCA [Cesodi] (Eterna round: R96, puzzle: Same State NG 2) |  |  |  | 15.6 | 17.5 | 19.4
GAGAGAUGGCGAGGAUAUUCGGUGAUAAUGAUGGAAGAAGGCGCUGACAUGAGGAUCACCCAUGUGGGAAUAAUCCAGAGAGAG [Parity 16 - Jieux - Same State NG 1] (Eterna round: R96, puzzle: Same State NG 1) |  |  |  | 306 | 154 | 257
GUAGCAUACCGAGGAUAUUCAUAUUAAAUUACAUGAGGAUCACCCAUGUAGGCCAAAAGGCCUUGGGAGAAGGCGGAAUGCUAC [Xeonanis - 20 Mod1] (Eterna round: R96, puzzle: Same State NG 2) |  |  |  | 18.8 | 89.3 | 102
ACAUGAGGAUCACCCAUGUAGGCUCAGGAAACUGUGCCACAUGAGGAUAUGGAUCCUAAUUGGAUCCAGAAGGCAUGUAUUAUU [Fiskers NG3ss - 22] (Eterna round: R96, puzzle: Same State NG 3) |  |  |  | 112 | 41.6 | 66.1
GGUUUAGCCAGGCGCAAUUGCGCCUGAAAACAUGAGGAUCACCCAUGUUUGGGACAAGCUUUGCUCCUCGUCUUGCA [Edreisza] (puzzle: Sensor for hsa-mir-208a) | 243 | 41.9 | 330 |  |  | 
GAGUAGUUGAAAGGAUAUGGAUUGUUAUAGAAUCCAGAAGGUUCUAACAUGAGGAUCACCCAUGUAGGACUAUUCCUGUGUAUC [Parity 79 - Jieux - Same State NG 1] (Eterna round: R96, puzzle: Same State NG 1) |  |  |  | 10.2 | 9.3 | 12.2
ACAUAGGGAACAGGAUAUGGGAAAAUUCCCUACAUGAGGAUCACCCAUGUCCGUAGGGACAACAUCCAGAAGGGUUACCACAUA [Eternabot solution 1] (Eterna round: R96, puzzle: Same State NG 2) |  |  |  | 211 | 549 | 656
